Experimental findings from article PMC3905857, “Structure and properties of the esterase from non-LTR retrotransposons suggest a role for lipids in retrotransposition” (Nucleic Acids Research, 2013) are described below.

Data set [1] concerns the molecule itself. Briefly: SEC-MALS; Superdex 75 (10/300 GL) followed online by MALLS; 20 mM Tris/HCl pH 7.5, 250 mM NaCl, 5 mM MgCl2.
Substrate in the data set “purified protein”: CC(=O)Oc1ccc([N+](=O)[O-])cc1
The experiment in a line: purified protein. The format is biochemical, Danio rerio. The note with it: 20 mM Tris/HCl pH 7.5, 250 mM NaCl, 5 mM MgCl2, 25°C.

A word on the stoichiometry N: it is a count of units in the complex or per binding partner. A word on the Km: it is the concentration of substrate that gives half-maximal velocity. What is called kcat is the number of substrate molecules converted per active site and unit of time at saturation.

B1: ZfL2-1_CC, N-terminal construct comprising the coiled coil domain of the ZfL2-1 ORF1p (M15-T91) (domain or fragment, Danio rerio (zebrafish), UniProt Q3LG57 15-91, looked up)
chain: MEALELELEEVESQIRALVVRRSRLRERLLAVPNAKAVSSPKVRGNYNHIIPSTSTPRPSLSRPSAPGARLSQASFT
notes: ORF1 protein (ORF1p) of the ZfL2-1 non-LTR retrotransposon, Danio rerio, Uniprot Q3LG57, residues M15-T91; Expressed from pETM41P from a codon-optimized synthetic template
For the protein B1, in data set [1], the “stoichiometry N” value came to 2.

B2: ZfL2-1 esterase (ZfL2-1_ES) (Danio rerio) (protein)
chain: DVAIIGDSIVRHVRAASSKGNKVRTFCFPGARVKNISTQIPTILGAAESPGAVVLHVGTNDTGLRQSEILKKDFRSLIETVRRTSPATQIIVSGPLPTYRRGNERFSRLLALNEWLITWCKEQKLLFANNWNLFWERPRLFRPDGLHPSRAGAELLSDNISRLLRTI
notes: esterase domain D136-I302, codon-optimized synthetic gene, pETM41P, E. coli BL21-Star; 19 kDa monomer (MBP apparently removed)
In the case of B2, in the data set “purified protein”, the Km amounted to 430 ± 100 µM and the kcat was determined as 0.32 ± 0.07 s⁻¹.
